The values below are quoted from earlier work in PMC4384115, “Molecular Recognition of PTS-1 Cargo Proteins by Pex5p: Implications for Protein Mistargeting in Primary Hyperoxaluria” (Biomolecules, 2015).

The target in series [1] is Carnitine acyl-transferase 1 PTS1 peptide (Homo sapiens).
In series [2] the target is 3-Hydroxy-3-methylglutaryl-CoA lyase PTS1 peptide (Homo sapiens).
The target of series [3] is L-Bifunctional enzyme PTS1 peptide (Homo sapiens).

pKd: −log10 of the molar value.

As a reminder, the pKd is the Kd on a negative log10 scale, so that one unit is a factor of ten. Take Pex5p pbd (from UniProt P50542): the pKd in series [1] was 7.23; in series [2], 5.70; in series [3] it was 5.96.
